Values quoted from earlier work in article PMC5221605.

Tests used:
[1] = target: Fibrinogen Aα-chain 561-575 (Homo sapiens) (UniProt P02671)
[2] = target: Fibrinogen (Homo sapiens) (UniProt P02671)
Fibrin (Homo sapiens) = Fibrin (Homo sapiens) (UniProt P02671)

UniProt P02671, sequence (P02671 36-866, chain 1 of 3): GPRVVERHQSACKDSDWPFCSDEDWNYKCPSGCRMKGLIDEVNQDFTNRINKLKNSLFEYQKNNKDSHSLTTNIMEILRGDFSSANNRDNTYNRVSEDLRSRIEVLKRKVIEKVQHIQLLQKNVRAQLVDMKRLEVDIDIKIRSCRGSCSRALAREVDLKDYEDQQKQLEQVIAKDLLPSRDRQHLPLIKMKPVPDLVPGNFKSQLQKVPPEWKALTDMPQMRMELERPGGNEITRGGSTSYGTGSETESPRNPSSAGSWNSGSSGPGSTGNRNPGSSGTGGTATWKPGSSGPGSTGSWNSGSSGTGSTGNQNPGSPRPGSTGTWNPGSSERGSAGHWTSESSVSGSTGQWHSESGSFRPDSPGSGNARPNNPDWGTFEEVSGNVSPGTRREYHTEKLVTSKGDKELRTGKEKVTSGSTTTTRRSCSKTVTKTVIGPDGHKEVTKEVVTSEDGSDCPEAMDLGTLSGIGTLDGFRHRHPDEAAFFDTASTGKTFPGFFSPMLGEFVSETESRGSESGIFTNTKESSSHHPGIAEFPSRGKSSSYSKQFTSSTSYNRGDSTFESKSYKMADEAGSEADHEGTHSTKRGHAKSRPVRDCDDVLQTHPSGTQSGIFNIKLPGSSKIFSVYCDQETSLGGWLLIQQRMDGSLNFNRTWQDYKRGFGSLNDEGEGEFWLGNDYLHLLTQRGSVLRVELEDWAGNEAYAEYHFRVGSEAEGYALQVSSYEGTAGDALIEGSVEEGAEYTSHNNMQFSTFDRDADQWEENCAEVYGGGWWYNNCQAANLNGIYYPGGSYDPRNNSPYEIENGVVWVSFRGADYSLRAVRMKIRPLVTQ
UniProt P02671, sequence (P02675 45-491, chain 2 of 3, further chain): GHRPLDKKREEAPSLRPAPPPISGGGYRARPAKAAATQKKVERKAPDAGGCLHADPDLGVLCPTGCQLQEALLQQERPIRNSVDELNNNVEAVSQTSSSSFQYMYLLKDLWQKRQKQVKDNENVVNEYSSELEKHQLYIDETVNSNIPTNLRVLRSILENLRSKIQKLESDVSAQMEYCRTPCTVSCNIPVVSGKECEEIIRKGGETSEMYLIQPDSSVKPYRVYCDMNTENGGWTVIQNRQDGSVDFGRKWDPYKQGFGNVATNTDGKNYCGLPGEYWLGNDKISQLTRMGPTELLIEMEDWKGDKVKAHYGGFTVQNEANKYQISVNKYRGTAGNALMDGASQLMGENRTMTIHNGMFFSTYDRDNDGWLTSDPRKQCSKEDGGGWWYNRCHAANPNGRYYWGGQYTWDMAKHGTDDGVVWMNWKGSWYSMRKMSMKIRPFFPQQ
UniProt P02671, sequence (P02679 27-453, chain 3 of 3, further chain): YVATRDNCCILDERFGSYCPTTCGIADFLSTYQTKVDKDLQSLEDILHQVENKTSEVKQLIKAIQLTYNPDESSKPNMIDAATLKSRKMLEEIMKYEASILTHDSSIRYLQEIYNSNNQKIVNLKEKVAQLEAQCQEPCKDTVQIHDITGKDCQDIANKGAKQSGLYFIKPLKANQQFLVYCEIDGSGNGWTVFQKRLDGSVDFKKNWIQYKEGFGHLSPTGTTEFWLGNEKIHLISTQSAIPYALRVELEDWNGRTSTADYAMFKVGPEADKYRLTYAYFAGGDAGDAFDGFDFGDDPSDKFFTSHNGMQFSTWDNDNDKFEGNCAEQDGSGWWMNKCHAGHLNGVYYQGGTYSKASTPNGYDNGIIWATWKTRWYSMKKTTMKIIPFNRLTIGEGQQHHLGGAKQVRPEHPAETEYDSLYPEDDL

| Substance | Kd [1] [nM] | Kd [2] [nM] | Kd (Fibrin (Homo sapiens)) [nM] |
| --- | --- | --- | --- |
| Bbp N2-N3 (from UniProt Q6GJA6) | 500 | – | – |
| ClfA (from UniProt Q2G015) | – | 500 | 500 |
